Data on five substances can be found in patent US20090163410A1, “Novel Peptides and the Biological Use Thereof” (priority 2005, published 2009).

Experiment [1] deals with peptide-phage 08B2S3 (fd phage) (UniProt P03661).
Experiment [2] concerns the target peptide-phage 07B2S3 (fd phage) (UniProt P03661).
Experiment [3] has as its target HIV-1 (Lai) Nef/SH3-Hck interaction (Human immunodeficiency virus type 1 group M subtype B, UniProt P03406). Conditions: for repression of the Nef-SH3 interaction as measured in the cell assay: COS-7 cells (FIG. 5B). The text has this: This assay makes it possible to integrate the cellular toxicity and bioavailability parameters by means of quantitative and functional reading of the interaction between two protein partners.
The Checkmate™ commercial system (Promega) was adapted to the HIV-1 (Lai) Nef/SH3-Hck pair in COS-7 cell culture (FIG. 5). This system combines the expression of firefly luciferase under the control of the interaction between Nef and the SH3 domain of Hck, and the expression, which is independent, of renilla luciferase, a control for cell viability. The ratio of the intensity of these two luciferases makes it possible to quantify the activity of a Nef-SH3-interaction competitor capable of penetrating into the cell and the half-life of which is sufficient over the time period of the analysis. Other protein interactions are also reconstituted in this assay: one, which is non-SH3 (between Id and MyoD), in order to exclude the compounds having a nonspecific activity on the luciferase expression, and the other between SH3 of Hck and the SAM68 protein, in order to identify the compounds which interact via the SH3 domain and not via Nef.
The cells are transferred using Fugene6 (Roche), according to the distributor's protocol. Briefly, the plasmids PG5 (300 ng), pAct or pActNef (400 ng), pBindHckmutated or pBindHck (100 ng) and pbcks (200 ng) are mixed, and then the Fugene 6 (3 μl diluted in 100 μl of DMEM culture medium) is added. The plasmids/Fugene6 mixture is left to react for a period of 15 min at ambient temperature, and is then deposited dropwise into the cell culture well.
After expression for 24H, the cells are harvested by treatment with trypsin (Gibco, ref 25300-054), washed, and then dispensed into 96-well plates (reference 353072, Beckton Dickinson). 50 μl of DMEM culture medium are then added to each well.
The activity of a candidate inhibitor compound is tested by adding 25 μl of this diluted compound to the well already containing 50 μl of the cell culture, and the luciferase activity is determined 24 H later in each well using the DualGlo assay kit according to the recommendations of the supplier (Promega).

pIC50: −log10 of the molar value.

As for “NefΔ1-57 protein (Nef HIV-1 LAI, residues 1 to 57 deleted) (from UniProt P03406 58-206)”, the pIC50 in experiment [1] and in experiment [2] was 6.00 throughout.

In the case of “R Ahx R Ahx R Ahx R Ahx R Ahx R Ahx R W P A W L P [SEQ ID No. 19]”, in experiment [3], the “repression of the Nef-SH3 interaction as measured in the cell assay” value (shortened to “repression of the Nef-SH3 interaction”) was “repress the Nef-SH3 interaction as measured in the cell assay, in a dose-dependent manner”. For “R Q I K I W F Q N R Nle K W K K [SEQ ID No. 15]”, in experiment [3], the “repression of the Nef-SH3 interaction” value is “repress the Nef-SH3 interaction as measured in the cell assay, in a dose-dependent manner”. As for “R R R R R R R R W P A W L P [SEQ ID No. 17]”, the “repression of the Nef-SH3 interaction” value in experiment [3] was “repress the Nef-SH3 interaction as measured in the cell assay, in a dose-dependent manner”.

As to W P A W L P (WPAWLP) [SEQ ID No. 11], the “biological activity on the Nef-SH3 interaction (firefly/renilla luciferase ratio)” value in experiment [3] (COS-7 cells, 10 to 50 μM of the peptide, compared with a control molecule, various times and periods of addition (FIG. 5B)) is “does not show any notable biological activity at low concentration”.
